# From patent US20050148763A1, “Peg-binding pth or peg-binding pth derivative” (Chugai Seiyaku Kabushiki Kaisha, priority 2002, published 2005)
# How the values were obtained:
# Assay type in all cases: in vivo
# [1] = Pharmacokinetics in rats by intravenous route; settings: 80 μg/mL at 1 mL/kg
# Description: (§1) Each sample was adjusted to 80 μg/mL by dilution with 25 mmol/L citrate-phosphate buffer (pH 5.0) containing 100 mmol/L NaCl and 0.05 vol % Tween 20 to give a solution for administration. Male SD rats at 6 weeks of age (CLEA Japan, Inc.) were provided for this experiment. Intravenous injection was performed on rats having polyethylene tubes (SP-31, Natsume Seisakusho Co., Ltd.) inserted into the femoral artery and vein. The solutions thus prepared were each administered at a dose of 1 mL/kg through a polyethylene tube inserted into the femoral vein, and blood was collected through a polyethylene tube inserted into the femoral artery before administration and at 5, 15, 30 and 45 minutes as well as 1, 2, 4, 6, 8 and 24 hours after administration. Subcutaneous administration was performed on rats having polyethylene tubes inserted into the femoral artery. The solutions prepared above were each subcutaneously administered at a dose of 1 mL/kg to the dorsal neck region of the rats, and blood was collected in the same manner as used for intravenous injection. These blood samples were centrifuged to collect plasma and stored at −40° C. until assayed for PTH(1-34) or PEG-PTH(1-34) levels.
# (§2) The level of PTH(1-34) or PEG-PTH(1-34) was determined by RIA analysis using a Rat PTH IRMA Kit (Immutopics). A Cobra Quantum Model 5005 gamma counter (Packard) was used to measure radioactivity for each sample. The plasma level of PTH(1-34) or PEG-PTH(1-34) was calculated from a calibration curve prepared using PTH(1-34) or PEG-PTH(1-34). The Winnonlin program Ver. 2.1 (Scientific Consulting Inc.) was used to analyze the time course of changes in the calculated plasma PTH(1-34) or PEG-PTH(1-34) levels (FIG. 3: by intravenous route; FIG. 4: by subcutaneous route) to calculate the following as pharmacokinetic parameters: time required to reach the maximum plasma level (Tmax); maximum plasma level (Cmax); area under the curve of plasma levels (AUC); plasma half-life (t1/2); total body clearance (Cltotal); mean residence time in the body (MRT); and bioavailability (BA). […]
# [2] = Pharmacokinetics and bioavailability in rats by subcutaneous route; settings: for BA: subcutaneous route; for AUC / MRT / Tmax / t ½: subcutaneous, 80 μg/mL at 1 mL/kg
# Description: as §1, §2
# [3] = Hypercalcemic effect of PEG-PTH(1-34) in normal male BDF1 mice; settings: for time of maximum increase in blood ionized calcium levels after administration: sc, hPTH(1-34) 50-500 nmol/kg, PEG-PTHs 150 nmol/kg
# Description: (§3) 2 k and 5 k PEG-PTH(1-34) were also adjusted similarly to 30 nmol/mL (calculated as PTH) and allowed to stand on ice immediately before administration.
# (§4) Male BDF1 mice at 5 weeks of age (Charles River Japan, Inc.) were measured for their body weight. Immediately before drug administration, blood was collected by orbital puncture into heparinized capillary tubes and measured for baseline levels of blood ionized calcium and pH using a Ca^2+/pH analyzer (Model 348/Bayer Medical Ltd.) to give the corrected level of ionized calcium at pH 7.4 for each sample. The mice received subcutaneous administration of each drug at a dose of 5 mL/kg. […] At 1, 3 and 6 hours after administration, blood was collected by orbital puncture to monitor the time course of corrected blood ionized calcium levels.
# [4] = Hypercalcemic effect of PEG-PTH(1-34) in normal female DDY mice
# Description: as §3, §4
# The same experiment was repeated on female DDY mice at 5 weeks of age (Charles River Japan, Inc.). The mice received subcutaneous administration of each drug at a dose of 5 mL/kg. […] At 1, 3 and 6 hours after administration, blood was collected by orbital puncture to monitor the time course of corrected blood ionized calcium levels.
# [5] = Hypotensive effect in anesthetized rats; settings: sc
# Description: The mono-methoxy 5 k PEG-PTH(1-34) prepared in Example 1(2) was also adjusted similarly to 36.5, 18.3 and 9.1 μg/mL (calculated as PTH(1-34)). The samples thus prepared were then stored on ice and restored to room temperature about 30 minutes before administration.
# Female SD rats at 10 weeks of age (Charles River Japan, Inc.) were anesthetized by intraperitoneal administration of 50 mg/kg pentobarbital sodium (Abbott Laboratories). A catheter for blood pressure measurement and a catheter for anesthesia maintenance were inserted into the femoral artery and vein, respectively, of each rat. Anesthesia was maintained using a syringe pump (Terumo Corporation) to ensure continuous injection (at 22.5 mg/kg/hour) of pentobarbital sodium (powder form, Tokyo Kasei Kogyo Co., Ltd.) dissolved in physiological saline (Otsuka Pharmaceutical Co., Ltd.). On the other hand, each catheter for blood pressure measurement was filled with 100 U/mL heparin sodium (Novo Nordisk A/S) in physiological saline. To measure systemic blood pressure, a pressure transducer (Nihon Kohden Corporation) was connected to the catheter for blood pressure measurement and signals from the transducer were input to a blood pressure amplifier (Nihon Kohden Corporation). The resulting data were averaged for use as an indicator of systemic blood pressure. The output of systemic blood pressure was, in turn, input to a measuring unit for instantaneous heart rate (Nihon Kohden Corporation) to determine heart rate. These parameters were continuously recorded on a thermal pen recorder (Graphtec Corporation) at a speed of 5 mm/min. After surgery, an injection needle for administration of a test substance was inserted into the dorsal subcutaneous region of each rat. After each parameter had stabilized, test drugs were administered. […] This figure illustrates changes in blood pressure induced by administration of a negative control (buffer), 50 μg/kg hPTH (1-34) and 36.5 μg/kg 5 k PEG-PTH(1-34) in this order from the upper panel. In addition, the average value of blood pressure before PTH administration and the value at the maximum blood pressure drop after administration were measured for each case to determine the difference between these two values. […] The vertical axis represents the maximum blood pressure drop (mmHg) and the horizontal axis represents the amount of PTH administered.
Substance,AUC [1] [ng·h/mL],Cltotal [1] [mL/min/kg],MRT [1] [h],t ½ [1] [h],BA ([2]; listed as 2 k PEG-PTH (1-34)) [%],BA ([2]; listed as 2 k PEG-PTH(1-34)),AUC [2] [ng·h/mL],MRT [2] [h],Tmax [2] [h],t ½ [2] [h],increase in blood ionized calcium levels (in words) ([3]; 150 nmol/kg sc),increased blood ionized calcium level maintained until ([3]; 150 nmol/kg sc) [h],time of maximum increase in blood ionized calcium levels after administration [3],BA [2] [%],increase in blood ionized calcium levels (in words) ([4]; 150 nmol/kg sc),"time of maximum increase in blood ionized calcium levels after administration ([4]; sc, hPTH(1-34) 50-500 nmol/kg, 5 k PEG-PTH(1-34) 150 nmol/kg) [h]",hypotensive effect after administration (in words) ([5]; anesthetized female SD rats),"hypotensive effect over doses, maximum blood pressure drop (in words) ([5]; anesthetized rats, hPTH(1-34) 12.5-50 μg/kg, 5 k PEG-PTH(1-34) 9.1-36.5 μg/kg)"
"2k PEG-hPTH(1-34): hPTH(1-34) reacted with mPEG 2 k-SPA, fraction having one 2 kDa PEG molecule per PTH molecule",95.781,14.03,0.465,1.128,56.1,about 56.1%,53.78,1.684,0.300,1.231,almost the same increase in ionized calcium levels as observed with 500 nmol/kg hPTH(1-34),3,one,–,–,–,–,–
"5k PEG-hPTH(1-34): hPTH(1-34) reacted with mPEG 5 k-SPA, fraction having one 5 kDa PEG molecule per PTH molecule",178.547,7.49,2.578,5.706,–,–,126.793,5.706,0.813,6.758,gradual increase in blood ionized calcium levels to reach the same maximum value as observed with hPTH(1-34),–,3 h,~71.0,gradual increase in blood ionized calcium levels to reach the same maximum value as observed with 500 nmol/kg hPTH(1-34),3,mild hypotensive effect after administration,much weaker effect than hPTH(1-34) when administered at a higher dose
